The source of these data is article PMC7935748 (Molecular cell, 2021).

One data set has as its target FLAG-GFP-RADX R389E (human, UniProt Q6NSI4 1-855, R389E). Kind of data set: pull-down.
A further data set addresses FLAG-GFP-RADX (human, UniProt Q6NSI4 1-855). Kind of data set: pull-down.
Data set [1] deals with FLAG-GFP-RADX alanine mutant of residues 365-368 (human, UniProt Q6NSI4 1-855, 4-residue alanine mutation of residues 365-368). Put plainly: pull-down.
Another data set deals with MBP-RADX QVPK (Homo sapiens, UniProt Q6NSI4 1-855, Q451A;V452A;P453A;K454A). Kind of data set: EMSA. On the technique in general: Mobility shift assays separate free from complexed probe on a gel.
For another data set, the target named is MBP-RADX (Homo sapiens, UniProt Q6NSI4 1-855). Kind of data set: EMSA.

B1: Human RAD51 (natural protein, UniProt Q06609 1-339, looked up)
chain: MAMQMQLEANADTSVEEESFGPQPISRLEQCGINANDVKKLEEAGFHTVEAVAYAPKKELINIKGISEAKADKILAEAAKLVPMGFTTATEFHQRRSEIIQITTGSKELDKLLQGGIETGSITEMFGEFRTGKTQICHTLAVTCQLPIDRGGGEGKAMYIDTEGTFRPERLLAVAERYGLSGSDVLDNVAYARAFNTDHQTQLLYQASAMMVESRYALLIVDSATALYRTDYSGRGELSARQMHLARFLRMLLRLADEFGVAVVITNQVVAQVDGAAMFAADPKKPIGGNIIAHASTTRLYLRKGRGETRICKIYDSPCLPEAEAMFAINADGVGDAKD
For the molecule B1, the binding result (with FLAG-GFP-RADX R389E; in the data set with FLAG-GFP-RADX; in data set [1]) was “binds” each time.

B2: RAD51 K133R (natural protein, human, UniProt Q06609 1-339, looked up)
chain: MAMQMQLEANADTSVEEESFGPQPISRLEQCGINANDVKKLEEAGFHTVEAVAYAPKKELINIKGISEAKADKILAEAAKLVPMGFTTATEFHQRRSEIIQITTGSKELDKLLQGGIETGSITEMFGEFRTGRTQICHTLAVTCQLPIDRGGGEGKAMYIDTEGTFRPERLLAVAERYGLSGSDVLDNVAYARAFNTDHQTQLLYQASAMMVESRYALLIVDSATALYRTDYSGRGELSARQMHLARFLRMLLRLADEFGVAVVITNQVVAQVDGAAMFAADPKKPIGGNIIAHASTTRLYLRKGRGETRICKIYDSPCLPEAEAMFAINADGVGDAKD
As to B2, the binding result with FLAG-GFP-RADX is “binds”.

B3: dT60 (ssDNA)
DNA: TTTTTTTTTTTTTTTTTTTTTTTTTTTTTTTTTTTTTTTTTTTTTTTTTTTTTTTTTTTT
As for B3, the binding result with MBP-RADX QVPK and in the data set with MBP-RADX was “binds” in each case.
